Reference: patent US20210032299A1 (Eli Lilly, published 2021)
Starred links: 1 amine or outer side, 2 acyl side, 3 side chain; linkers in the order of their positions; H or OH if unused. Non-standard residues stand in square brackets, D forms with d. Groups on a side chain read outwards from the residue. No end group written: not given here. *: point of attachment. C20 diacid = O=C(O)CCCCCCCCCCCCCCCCCCC(=O)*; C18 diacid = O=C(O)CCCCCCCCCCCCCCCCC(=O)*; αMePhe(2-F) = C[C@](N)(Cc1ccccc1F)C(=O)O; γGlu = O=C(O)[C@H](CCC(=O)[*:2])N[*:1]; αMeF = C[C@](N)(Cc1ccccc1)C(=O)O; 4Pal = N[C@@H](Cc1ccncc1)C(=O)O; αMeL = CC(C)C[C@](C)(N)C(=O)O; AEEA = NCCOCCOCC(=O)O; Aib = CC(C)(N)C(=O)O

T1: human glucose-dependent insulinotropic peptide receptor (human, UniProt P48546 22-466)
T1 sequence (looked up): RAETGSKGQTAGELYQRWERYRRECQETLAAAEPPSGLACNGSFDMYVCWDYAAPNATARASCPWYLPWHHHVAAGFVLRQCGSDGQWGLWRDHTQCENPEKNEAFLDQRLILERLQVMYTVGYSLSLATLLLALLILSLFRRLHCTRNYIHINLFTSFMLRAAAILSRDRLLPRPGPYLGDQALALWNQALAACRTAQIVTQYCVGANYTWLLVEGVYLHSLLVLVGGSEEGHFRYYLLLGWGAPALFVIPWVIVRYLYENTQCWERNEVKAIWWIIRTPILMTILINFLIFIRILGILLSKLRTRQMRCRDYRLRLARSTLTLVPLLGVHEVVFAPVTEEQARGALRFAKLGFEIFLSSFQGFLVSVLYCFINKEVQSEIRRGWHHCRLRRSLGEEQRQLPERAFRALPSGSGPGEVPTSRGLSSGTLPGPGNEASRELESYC


Tests used:
Test in all cases: cell-based or functional assay
[1] = target: T1, human glucose-dependent insulinotropic …
human glucagon receptor = human glucagon receptor (human, UniProt P47871 26-477)
Sequence of human glucagon receptor (P47871 26-477): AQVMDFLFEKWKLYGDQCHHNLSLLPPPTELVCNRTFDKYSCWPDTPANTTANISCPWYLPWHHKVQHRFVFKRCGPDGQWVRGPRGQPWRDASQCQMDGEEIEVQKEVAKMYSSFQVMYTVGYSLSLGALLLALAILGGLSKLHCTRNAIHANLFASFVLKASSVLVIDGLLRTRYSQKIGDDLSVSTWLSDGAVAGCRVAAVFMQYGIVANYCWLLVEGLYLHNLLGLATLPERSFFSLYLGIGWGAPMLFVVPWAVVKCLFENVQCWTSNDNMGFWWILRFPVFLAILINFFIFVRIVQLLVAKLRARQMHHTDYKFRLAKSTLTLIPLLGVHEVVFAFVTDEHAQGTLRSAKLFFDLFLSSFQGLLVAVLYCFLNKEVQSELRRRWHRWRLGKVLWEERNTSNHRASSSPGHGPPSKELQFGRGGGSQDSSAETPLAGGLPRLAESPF

human GLP-1 receptor = human GLP-1 receptor (human, UniProt P43220 24-463)

Binder | hGIPR cAMP Rel EC50 [1] [nM] | hGcgR cAMP Rel EC50 (human glucagon receptor) [nM] | hGLP1R cAMP Rel EC50 (human GLP-1 receptor) [nM]
Y[Aib]EGTFISDYSI[αMeL]LDKK([AEEA-AEEA-γGlu-C20 diacid])HQ[Aib]DFVEWLLAGGPSSGAPPPS-NH2 (N-terminus assumed; SMILES CC[C@H](C)[C@H](NC(=O)[C@H](Cc1ccccc1)NC(=O)[C@@H](NC(=O)CNC(=O)[C@H](CCC(=O)O)NC(=O)C(C)(C)NC(=O)[C@@H](N)Cc1ccc(O)cc1)[C@@H](C)O)C(=O)N[C@@H](CO)C(=O)N[C@@H](CC(=O)O)C(=O)N[C@@H](Cc1ccc(O)cc1)C(=O)N[C@@H](CO)C(=O)N[C@H](C(=O)N[C@@](C)(CC(C)C)C(=O)N[C@@H](CC(C)C)C(=O)N[C@@H](CC(=O)O)C(=O)N[C@@H](CCCCN)C(=O)N[C@@H](CCCCNC(=O)COCCOCCNC(=O)COCCOCCNC(=O)CC[C@H](NC(=O)CCCCCCCCCCCCCCCCCCC(=O)O)C(=O)O)C(=O)N[C@@H](Cc1c[nH]cn1)C(=O)N[C@@H](CCC(N)=O)C(=O)NC(C)(C)C(=O)N[C@@H](CC(=O)O)C(=O)N[C@@H](Cc1ccccc1)C(=O)N[C@H](C(=O)N[C@@H](CCC(=O)O)C(=O)N[C@@H](Cc1c[nH]c2ccccc12)C(=O)N[C@@H](CC(C)C)C(=O)N[C@@H](CC(C)C)C(=O)N[C@@H](C)C(=O)NCC(=O)NCC(=O)N1CCC[C@H]1C(=O)N[C@@H](CO)C(=O)N[C@@H](CO)C(=O)NCC(=O)N[C@@H](C)C(=O)N1CCC[C@H]1C(=O)N1CCC[C@H]1C(=O)N1CCC[C@H]1C(=O)N[C@@H](CO)C(N)=O)C(C)C)[C@@H](C)CC) [Example 54] | 0.054 | > 5000 | > 5000
Y[Aib]EGT[αMePhe(2-F)]ISDYSI[αMeL]LDKK([AEEA-AEEA-γGlu-C20 diacid])HQ[Aib]DFVE[4Pal]LLAGGPSSGAPPPS-NH2 (N-terminus assumed; SMILES CC[C@H](C)[C@H](NC(=O)[C@H](CO)NC(=O)[C@H](Cc1ccc(O)cc1)NC(=O)[C@H](CC(=O)O)NC(=O)[C@H](CO)NC(=O)[C@@H](NC(=O)[C@](C)(Cc1ccccc1F)NC(=O)[C@@H](NC(=O)CNC(=O)[C@H](CCC(=O)O)NC(=O)C(C)(C)NC(=O)[C@@H](N)Cc1ccc(O)cc1)[C@@H](C)O)[C@@H](C)CC)C(=O)N[C@@](C)(CC(C)C)C(=O)N[C@@H](CC(C)C)C(=O)N[C@@H](CC(=O)O)C(=O)N[C@@H](CCCCN)C(=O)N[C@@H](CCCCNC(=O)COCCOCCNC(=O)COCCOCCNC(=O)CC[C@H](NC(=O)CCCCCCCCCCCCCCCCCCC(=O)O)C(=O)O)C(=O)N[C@@H](Cc1c[nH]cn1)C(=O)N[C@@H](CCC(N)=O)C(=O)NC(C)(C)C(=O)N[C@@H](CC(=O)O)C(=O)N[C@@H](Cc1ccccc1)C(=O)N[C@H](C(=O)N[C@@H](CCC(=O)O)C(=O)N[C@@H](Cc1ccncc1)C(=O)N[C@@H](CC(C)C)C(=O)N[C@@H](CC(C)C)C(=O)N[C@@H](C)C(=O)NCC(=O)NCC(=O)N1CCC[C@H]1C(=O)N[C@@H](CO)C(=O)N[C@@H](CO)C(=O)NCC(=O)N[C@@H](C)C(=O)N1CCC[C@H]1C(=O)N1CCC[C@H]1C(=O)N1CCC[C@H]1C(=O)N[C@@H](CO)C(N)=O)C(C)C) [Example 51] | 0.0166 | 308 | 24.7
Y[Aib]EGTFISDYSI[αMeL]LDKK([AEEA-AEEA-γGlu-C18 diacid])HQ[Aib]DFVE[4Pal]LLAGGPSSGAPPPS-NH2 (N-terminus assumed; SMILES CC[C@H](C)[C@H](NC(=O)[C@H](Cc1ccccc1)NC(=O)[C@@H](NC(=O)CNC(=O)[C@H](CCC(=O)O)NC(=O)C(C)(C)NC(=O)[C@@H](N)Cc1ccc(O)cc1)[C@@H](C)O)C(=O)N[C@@H](CO)C(=O)N[C@@H](CC(=O)O)C(=O)N[C@@H](Cc1ccc(O)cc1)C(=O)N[C@@H](CO)C(=O)N[C@H](C(=O)N[C@@](C)(CC(C)C)C(=O)N[C@@H](CC(C)C)C(=O)N[C@@H](CC(=O)O)C(=O)N[C@@H](CCCCN)C(=O)N[C@@H](CCCCNC(=O)COCCOCCNC(=O)COCCOCCNC(=O)CC[C@H](NC(=O)CCCCCCCCCCCCCCCCC(=O)O)C(=O)O)C(=O)N[C@@H](Cc1c[nH]cn1)C(=O)N[C@@H](CCC(N)=O)C(=O)NC(C)(C)C(=O)N[C@@H](CC(=O)O)C(=O)N[C@@H](Cc1ccccc1)C(=O)N[C@H](C(=O)N[C@@H](CCC(=O)O)C(=O)N[C@@H](Cc1ccncc1)C(=O)N[C@@H](CC(C)C)C(=O)N[C@@H](CC(C)C)C(=O)N[C@@H](C)C(=O)NCC(=O)NCC(=O)N1CCC[C@H]1C(=O)N[C@@H](CO)C(=O)N[C@@H](CO)C(=O)NCC(=O)N[C@@H](C)C(=O)N1CCC[C@H]1C(=O)N1CCC[C@H]1C(=O)N1CCC[C@H]1C(=O)N[C@@H](CO)C(N)=O)C(C)C)[C@@H](C)CC) [Example 49] | 0.0156 | 2860 | > 5000
Y[Aib]EGT[αMeF]ISDYSI[αMeL]LDKK([AEEA-AEEA-γGlu-C20 diacid])HQ[Aib]DFVE[4Pal]LLAGGPSSGAPPPS-NH2 (N-terminus assumed; SMILES CC[C@H](C)[C@H](NC(=O)[C@H](CO)NC(=O)[C@H](Cc1ccc(O)cc1)NC(=O)[C@H](CC(=O)O)NC(=O)[C@H](CO)NC(=O)[C@@H](NC(=O)[C@](C)(Cc1ccccc1)NC(=O)[C@@H](NC(=O)CNC(=O)[C@H](CCC(=O)O)NC(=O)C(C)(C)NC(=O)[C@@H](N)Cc1ccc(O)cc1)[C@@H](C)O)[C@@H](C)CC)C(=O)N[C@@](C)(CC(C)C)C(=O)N[C@@H](CC(C)C)C(=O)N[C@@H](CC(=O)O)C(=O)N[C@@H](CCCCN)C(=O)N[C@@H](CCCCNC(=O)COCCOCCNC(=O)COCCOCCNC(=O)CC[C@H](NC(=O)CCCCCCCCCCCCCCCCCCC(=O)O)C(=O)O)C(=O)N[C@@H](Cc1c[nH]cn1)C(=O)N[C@@H](CCC(N)=O)C(=O)NC(C)(C)C(=O)N[C@@H](CC(=O)O)C(=O)N[C@@H](Cc1ccccc1)C(=O)N[C@H](C(=O)N[C@@H](CCC(=O)O)C(=O)N[C@@H](Cc1ccncc1)C(=O)N[C@@H](CC(C)C)C(=O)N[C@@H](CC(C)C)C(=O)N[C@@H](C)C(=O)NCC(=O)NCC(=O)N1CCC[C@H]1C(=O)N[C@@H](CO)C(=O)N[C@@H](CO)C(=O)NCC(=O)N[C@@H](C)C(=O)N1CCC[C@H]1C(=O)N1CCC[C@H]1C(=O)N1CCC[C@H]1C(=O)N[C@@H](CO)C(N)=O)C(C)C) [Example 50] | 0.0212 | 371 | 41
Y[Aib]EGTFISDYSI[αMeL]LDKK([AEEA-AEEA-γGlu-C20 diacid])HQ[Aib]EFVE[4Pal]LLAGGPSSGAPPPS-NH2 (N-terminus assumed; SMILES CC[C@H](C)[C@H](NC(=O)[C@H](Cc1ccccc1)NC(=O)[C@@H](NC(=O)CNC(=O)[C@H](CCC(=O)O)NC(=O)C(C)(C)NC(=O)[C@@H](N)Cc1ccc(O)cc1)[C@@H](C)O)C(=O)N[C@@H](CO)C(=O)N[C@@H](CC(=O)O)C(=O)N[C@@H](Cc1ccc(O)cc1)C(=O)N[C@@H](CO)C(=O)N[C@H](C(=O)N[C@@](C)(CC(C)C)C(=O)N[C@@H](CC(C)C)C(=O)N[C@@H](CC(=O)O)C(=O)N[C@@H](CCCCN)C(=O)N[C@@H](CCCCNC(=O)COCCOCCNC(=O)COCCOCCNC(=O)CC[C@H](NC(=O)CCCCCCCCCCCCCCCCCCC(=O)O)C(=O)O)C(=O)N[C@@H](Cc1c[nH]cn1)C(=O)N[C@@H](CCC(N)=O)C(=O)NC(C)(C)C(=O)N[C@@H](CCC(=O)O)C(=O)N[C@@H](Cc1ccccc1)C(=O)N[C@H](C(=O)N[C@@H](CCC(=O)O)C(=O)N[C@@H](Cc1ccncc1)C(=O)N[C@@H](CC(C)C)C(=O)N[C@@H](CC(C)C)C(=O)N[C@@H](C)C(=O)NCC(=O)NCC(=O)N1CCC[C@H]1C(=O)N[C@@H](CO)C(=O)N[C@@H](CO)C(=O)NCC(=O)N[C@@H](C)C(=O)N1CCC[C@H]1C(=O)N1CCC[C@H]1C(=O)N1CCC[C@H]1C(=O)N[C@@H](CO)C(N)=O)C(C)C)[C@@H](C)CC) [Example 52] | 0.0194 | 337 | > 5000
Y[Aib]EGTFISDYSI[αMeL]LDKK([AEEA-AEEA-γGlu-C20 diacid])HQ[Aib]DFVEYLLAGGPSSGAPPPS-NH2 (N-terminus assumed; SMILES CC[C@H](C)[C@H](NC(=O)[C@H](Cc1ccccc1)NC(=O)[C@@H](NC(=O)CNC(=O)[C@H](CCC(=O)O)NC(=O)C(C)(C)NC(=O)[C@@H](N)Cc1ccc(O)cc1)[C@@H](C)O)C(=O)N[C@@H](CO)C(=O)N[C@@H](CC(=O)O)C(=O)N[C@@H](Cc1ccc(O)cc1)C(=O)N[C@@H](CO)C(=O)N[C@H](C(=O)N[C@@](C)(CC(C)C)C(=O)N[C@@H](CC(C)C)C(=O)N[C@@H](CC(=O)O)C(=O)N[C@@H](CCCCN)C(=O)N[C@@H](CCCCNC(=O)COCCOCCNC(=O)COCCOCCNC(=O)CC[C@H](NC(=O)CCCCCCCCCCCCCCCCCCC(=O)O)C(=O)O)C(=O)N[C@@H](Cc1c[nH]cn1)C(=O)N[C@@H](CCC(N)=O)C(=O)NC(C)(C)C(=O)N[C@@H](CC(=O)O)C(=O)N[C@@H](Cc1ccccc1)C(=O)N[C@H](C(=O)N[C@@H](CCC(=O)O)C(=O)N[C@@H](Cc1ccc(O)cc1)C(=O)N[C@@H](CC(C)C)C(=O)N[C@@H](CC(C)C)C(=O)N[C@@H](C)C(=O)NCC(=O)NCC(=O)N1CCC[C@H]1C(=O)N[C@@H](CO)C(=O)N[C@@H](CO)C(=O)NCC(=O)N[C@@H](C)C(=O)N1CCC[C@H]1C(=O)N1CCC[C@H]1C(=O)N1CCC[C@H]1C(=O)N[C@@H](CO)C(N)=O)C(C)C)[C@@H](C)CC) [Example 53] | 0.0194 | 344 | > 5000
